# Tested on: Saccharomyces cerevisiae
# Test: transcriptional activation domain activity (GFP:mCherry ratio, weighted mean of sorted bins, harmonized to initial dataset scale) (arbitrary fluorescence ratio units); higher = stronger transcriptional activation
# Conditions: beta-estradiol 1 µM; induction time 4 h
# How it was run: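 For this assay, yeast diploids with a GFP reporter carried barcoded protein tiles at URA3, each fused to an estradiol-inducible synthetic transcription factor. Induction was a 1:5 dilution into SC with 1 uM beta-estradiol for 4 hours at 30 °C, followed by sorting into 8 bins by GFP:mCherry ratio and barcode sequencing. Tiles under 50 reads were dropped, and activation activity was calculated as the read-weighted mean of bin median fluorescence, averaged across barcodes and linearly mapped onto the initial dataset scale.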
row,Sequence,transcriptional activation domain activity
1,MYHISCWFIFFHLLMSHIFIFIFIFLLLLFYKCIIFLFLYTYFFYFLVFSRLL,25700
2,MSHSASTSASTSTAAGEPSAKRMRLGTRSCAECRRRKVRCIVPPGARVCEGCS,75900
3,ERGTGGQGRRAEEEEAQGGDGGHKTKERGRDEEAGAGGGPAEAGAGAGAKGRT,28600
4,KHPQNTTTDIENEVENPVTDDNGNLKLELPDNLDNADFSKLLEFDAKNDEALF,33600
5,MPVLFVFFSSFHSFIFLFFFYYGWLKVVIQVVMRLWGYKSLVGFFFLHGLLVC,66500
6,RIWLRRLFDIARLLSVGVSNQWSLRMLLDRDAFTPLLIKWLNYYSLRIWTSAV,68500
7,LNWYWLASTMYFLYGESVIYYFKHIVLVDKVLLPLATHHRFISFLLYLMGFVF,93000
8,WSVMSCLYLVVRYFGIFLALLCGFWGGLLYIPESVSYGLIVLIEWGFSVYFWF,41400
9,YAEWLLQPEQHNGTWVADVLWPAINLDLQWISQHWNESSWDLWWSPVWAGSYW,66400
10,SRPSTAPKPAPNPSPETTVTSISTPSEKRKRGRKPKAKPVEVPVSQTSGADSL,20600
11,RGEILESKFGRSSKPSPRILIVSNSKFYIVAQALVNHQVQISVERSVPLGAIK,51900
12,MGFKDFPFVDFAVFFFFFFSPFFSSMFILSFIYLFWFDLGIGLVGVLLFFFCH,47500
13,SKPSSNGRSDCSKHSTGKDASNKKNNRGKSKKAKKKTAAAKANTTDNESDSSD,33600
14,FKSQLFCFYNLRLFVSCQPKHLNDLVDLLKKYHGSHVYQFVFTLSAFLERVAQ,48800
15,MSDTKSARSGDKERDKRRREKESDSSSKDGRRGSHSHSKTPEEPKEKGHKRKH,13000
16,TAVSQLERAIARILLIRYEQDIARLFSTRLYSVALVHLPTFVMRCAALAGPGW,50400
17,IIVKTEIMIRNRHPRFLRITLDSVSNLVRLWYIVRLKKLTYYYLLWEFSLLPL,49700
18,MWSFFFFLFFFGFCFLVFWPNLFFLFFFHDSCPFVLLLFLFHLFHLPVFPRSG,40300
19,PVKPASKKPAEKAKEKAKEAPKEKAKAKEPAKAKEDKPKAKPASKKAAAKPAA,34700
20,MFCLRSWLPLLFIPTNASPIFIFLFFVSTYFLNRPCVYCSFLLLILFASSCHW,52500
21,WSILYLLCEVYARLLLTLSDDEFLSHAGNPLSLKQVIELTRQLKNLSFVLFWR,70700

row,Sequence,transcriptional activation domain activity
1,EKAGEEEKAGEEEKAAEEEKSAEEEKAAKEEEMKAMEKSKAEKEASSEEPKAE,35700
2,MDGDERPRKRARLACTNCNARRVKCDVTDRQPCRNCEIAHAVCETRESKRGKH,9400
3,MADENNTAAAVGERNVPRQKQKRVFQTRARTGCQRCRARRRKCDEAKPRCARC,35200
4,GQSGLGLEFNLPDFPLISIIFLIFFITLGLLWLVIVYLANFPDAFTLPVWLWH,29500
5,MYHSIQLGPVVSLLSLALSFIFFFLSPFFFFPFLALSFAPLFVILIFFFISTC,29000
6,MSDATPTSARKAMAPRRSHRKSRLGCANCKRRRIKCDEQKPACSNCVKHDIRC,24400
7,VKHLKLSRDKSSPTFKFDSLYREILSSHPELMFILTAMLLWPDLVSDYHILRV,30200
8,TGDDDAAKTTPKKRGDADGTPKTAKSTPRKRKTKAEGDGECSPKKRGRKTKVV,36500
9,DLHLICNMVNGSTTFHSGESWTPVCLPRFNSKGFLHAYVCFVAKETCLVLISP,30300
10,FLAYVAKRIVWAIIRTIVYLRRDYLGYLSLGRGRSPSNVRGWLANKWYQFLLL,50100
11,LLKKCLKSSFGKSNEVTTYCLEFFGNVYRWSEMYWSSTWPVLLLVHALKSKQK,52700
12,WYHHVPLCILVLLLLAPHPSILYVLLNYHYLTLHATHYFIVHLLTIYAFSFLA,45900
13,KSRKRAKKSPEESEVESKHRRRRSRKAVEDENDENSHCKRTKKVAGAESEKAV,19700
14,YAVPNDFVVTGGLLLLRYDRLNELPLGTRANSSVLVCVYRTWIALMRYLLAGP,62800
15,RLAGGLRGLTGLEKEELRKRGWGLGWWMMRGAFYENITKAWIHTVTRKLKNKP,47300
16,VVAAETAPATEEKPAEETKPAEEAAKAEEKKEEEEIKPVEEGHLNHKAQGLSF,49400
17,SLSTFVYTFLRFHFYFFAFFLVALTFSFFLLFCSLFVCPVGIIFLYFFIFFVL,52100
18,EIAEGDEAEAARPAKIPRKPRRKKAVEGEGANEEGGAAPPRPKRKRKTKSKSA,42100
19,LCVDVWDGFFLSPLNLVAISFLIFLPFHCWVINAPLSILCLTSIMGFPSFLFF,70200
20,LYFLRPEVLPDRYAFTIPAISFLGTNDYPVLVPDLFLLLTSSFWSPTLLWFFT,55600
21,DIEQQVRFRLTQIYFLILKLDAFFHFVLCVFYAVVMTQEKYYTLWGVIDRKFI,79400

row,Sequence,transcriptional activation domain activity
1,MMDCGRRTSFQAFIFLSLFLVHQVSFCCVYLICFFFFLFFLSFLYSFPFPFFF,26400
2,EIGALMLLSKTLEDNPNRLGSLVRILTLKCFIPQSYFKLMVRRLNILFSCCSR,64300
3,LGDQPHIPIPVAFRNIWSFLRVCTLEGFDAKEILPILFALSPGAQLRFIRCRS,70800
4,VEAGDGDGAPPKSAKRPRKKKEPVEEGDGDAAAPKPAKRPRKKKVDVTEAQKE,48100
5,SREFLWVGFGVRCMVLAKFQVIKGLKYIRTIIAQKNQSAGLAIELRILMVVWV,43800
6,AADQVQDTAGQAVNQVGDTAGKALGGLTGGGKKEQGGEEEGGGEQLRLRLELN,35700
7,PSRLTSPSSRRLPSTPGPHPRKSTPRSKPPPSSPARRRSSSTTPTGRPSQPSS,24900
8,MVLIFFLYWLWFMWGLYLFFFSFFSRAKYWLLVLVVFFFGWGFYIVWSFSLHD,57500
9,MRFLLLSFPCNHHPSLSLYISSISLFLLRPFIFLSLLFFCIVSYYLGVCVVWG,53500
10,EMGTLAALLWQPEIRDLTTYLRDIRVAVANVLDVFAMIEPSRLIAKIKIHLLA,43100
11,MYHIPWPQVLWVGYQLRPTQIMGIFCSHLSVVLLVLPTPYYFLFHVLFLLWAS,48900
12,LRKSQDRLWAERPWYFYPMYFNEHGNGIFPEVVHLNDAVVIGVLHYYLIQVLL,46400
13,ASTAGPAAGGSVSAAPKRRGRPPKRKAEPEQGAEAQPAKKPRGRPRKSAVVEA,12000
14,RCGILLGSKNDGEGVDFVRVRGERIERGSSASIEEGIGEMGRSRPVRFGGGEE,21500
15,MLCMTMTTCMQWLAQFMIVYSLPYMVVSIKSFTFIFFAVCTTFSFIFTLLFVP,41900
16,DSSFDLNMNLDLNLNLDSNFNIALNRSDSSGSTMNLDYKLPESANNYTYSSGS,90700
17,WVLNVHLCLFYLAAFGDSAFNVISAIRKLSELPFSYSLYLFAWLFISWDLLFV,70500
18,MLFGRSFMGTYFISGKHVFFFFLVFFNSLFLFYLLTSTFISICITGSLFFFVL,30400
19,MTNRLHIICHICVFYGYVLMFPAITSYYFILLCILILILHLFIFILAHFYKDR,37300
20,DSNILAILPAVVYLQHSCYCLYFFYLYCFCLFLMSIDVAILYCLLYKIIPLFH,43400
21,EYDEDAARRIAERVHARAIGLTCGAAPPQVGGRSCASAVWSPIRVAVSTVCIQ,44700

row,Sequence,transcriptional activation domain activity
1,VHGSSFLVRYFVYITPLVLVILIPLLLGALLFKHASVAGVEMVWFCIWLEIVW,50100
2,EEGEGPREEGGEEAHEQRDEGRHEEREERKEERREEPVRAAVPVRAAEPAPVV,23000
3,WRYGKCQVCGYVMINYPGPNQRHHCLEGRVRTVYNTVTFPCYLEVHVVQMIWL,60800
4,MAKKASGSAEKKGGDKADKKGKAKAKADDSDVEDKGSKGKGALKAATAVNVRH,9660
5,RMGMTQELLALVTGLAHYLKILIRIALTGALKLERDYVLREAISSFLDKLHLL,69700
6,QHKKRRAEQAGRGEKAEADGSQARRKAEDRREEQQRAKQSAGQKEQEKVKAEQ,56000
7,RQRKDNHKEVERRRRGNINEGINELGRIVPNGSGEKAKGAILSRAVQYIHHLK,13600
8,LRRGFSKLLLIDDLYVLDKHLRSDRLRDLLWSAYVRAIVPRLCLIAFNFCQPF,60800
9,TPNNLTSFDDCHLIDGLELTYSDLLVLDDFLAFDFLGLDHFIFMVTPPWENVV,81000
10,AWLIHCILLFPWSSKLFPSWCGHMTSCYEFYVLGAISVCNCAVVFVYWLILLV,56600
11,VISTLYHGPQIWVPILVSTGLLAIFAEILPQYFIPRQAISWGYYCWPLIWGCM,36700
12,KGFDSQCIEEWDPILFSAAEIWPTKGKPIALVEMDPIDFDFDVDNWDYVTRHL,174000
13,KILNCLSIRLYLCRKGFGSLPNEQLALFNFNARECLRALGVTLFKPRLYRLCY,80900
14,HARLKIIETATKAWSGALDADIKTKMAQSTAGFSGADVKVRAPHPLWDIHRPL,37200
15,MYLFFFFFFFGWVLSLLLYVFFGLGIIGIGIVLFVFVLAFFFLFLGGIFFCGL,43900
16,IWGSANTLPKYLYFISRYFGLLGQLVVSTNLVPMFCFDYLVWSFGFLFTLILS,87200
17,RKDRKDRTRKERRDRHDDGRRHRHRRSSRSRSRDRRDRKHDRSRSRDRRKDGD,9360
18,MFRLLEESFRYEPFVTFGLAVFACYFALIALNVVYYYYLFHFLWFCSYAFLAL,51600
19,MEWHLLGSCLAGLVWGVFYIFFFFAACLIGFFPYHYHYLLLLLVLLTTNILFV,49500
20,FFGVCLGFYGFSFRSNFEPGAIIHDYILFMTPSFASLCARFHIQWLLFILFIH,46800
